Earlier results in article PMC7708053.

Target: T1, hnRNP L (cited Kd) (UniProt P14866)
T1 sequence: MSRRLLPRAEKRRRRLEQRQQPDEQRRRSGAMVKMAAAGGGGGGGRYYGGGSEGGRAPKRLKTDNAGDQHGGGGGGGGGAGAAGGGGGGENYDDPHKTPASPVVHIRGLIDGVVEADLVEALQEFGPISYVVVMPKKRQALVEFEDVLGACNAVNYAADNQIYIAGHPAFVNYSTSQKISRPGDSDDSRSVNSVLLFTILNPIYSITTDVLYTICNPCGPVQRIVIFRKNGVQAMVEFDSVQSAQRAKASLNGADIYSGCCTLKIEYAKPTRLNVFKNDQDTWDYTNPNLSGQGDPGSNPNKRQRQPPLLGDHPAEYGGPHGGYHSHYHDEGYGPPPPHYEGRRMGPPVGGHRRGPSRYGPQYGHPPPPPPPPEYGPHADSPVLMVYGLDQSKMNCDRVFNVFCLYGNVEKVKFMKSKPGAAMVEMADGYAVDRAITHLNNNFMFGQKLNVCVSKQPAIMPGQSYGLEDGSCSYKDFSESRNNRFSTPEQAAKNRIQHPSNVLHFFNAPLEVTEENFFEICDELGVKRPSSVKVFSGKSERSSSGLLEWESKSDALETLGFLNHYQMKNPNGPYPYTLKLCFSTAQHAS
Test: not stated (cited)
Settings: 50 pmol biotinylated RNA on streptavidin beads with HeLa lysate in RIPA (50 mM Tris-Cl pH 7.4, 150 mM NaCl, 5 mM EDTA, 1% NP-40), washed at 300 mM KCl …

Sequence: AUACAUGACACACACACGCA [CA-SELEX#51 20-mer]
- Kd: 7.2 nM
